# Laboratory results: patent US20260234660A1 (Regeneron, published 2026)
# B1: REGN5972-M3004 (antibody, V domains shown)
# VH: QVQLVESGGGVVQPGRSLRLSCTASGFTFRSYGMHWVRQAPGKGLEWVSVIWIDGNNIYYADSVKGRFTISRDNSKNTLYLQMDSLRAEDTAVYYCARRLAITSAAPFDYWGQGTLVTVSS
# VL: not shown
# modifications: N180Q in the constant region (heading of the 2nd table, row 736); linker-payload M3004 (VC-PAB linker, DHT)
# B2: H4H31265P2/REGN5972 (antibody, V domains shown)
# VH: B1 VH
# VL: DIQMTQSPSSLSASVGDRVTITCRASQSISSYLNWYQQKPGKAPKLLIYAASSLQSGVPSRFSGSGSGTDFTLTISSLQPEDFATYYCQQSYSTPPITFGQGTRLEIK
# notes: also called antibody designation 7
# Key:
# [1] = target: T1, human CACNG1, cell surface-expressed (human, UniProt Q06432 1-222); assay: cell-based or functional assay
# T1 sequence (Q06432 whole entry): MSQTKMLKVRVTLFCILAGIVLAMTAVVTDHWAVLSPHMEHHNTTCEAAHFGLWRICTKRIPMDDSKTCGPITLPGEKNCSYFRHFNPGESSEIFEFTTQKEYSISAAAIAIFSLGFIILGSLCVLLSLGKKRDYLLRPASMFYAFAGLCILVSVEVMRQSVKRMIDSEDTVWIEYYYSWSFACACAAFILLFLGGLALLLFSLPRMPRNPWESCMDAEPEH
# [2] = target: T1, human CACNG1, cell surface-expressed; assay: cell-based or functional assay; remark: listed apart in the source
# [3] = target: T1, human CACNG1, cell surface-expressed; assay: cell-based or functional assay; remark: listed apart in the source
# [4] = target: T2, nanodisc embedded human CACNG1 expressed with a C-terminal PADRE-Flag-His tag (human, UniProt Q06432 1-222); assay: SPR (Biacore T200), 25 C, anti-His-captured human CACNG1 nanodisc, antibody as analyte
# T2 construct: Membrane protein (gamma-1 subunit of the skeletal muscle L-type calcium channel) in a nanodisc; also called human CACNG1 nanodisc; CACNG1 nanodisc; not shown: C-terminal PADRE-Flag-His tag
# T2 sequence (Q06432 whole entry): as above
# Protocol: Equilibrium dissociation constants (KD values) for nanodisc embedded human CACNG1 expressed with a C-terminal PADRE-Flag-His tag (human CACNG1 nanodisc) binding to purified anti-hCACNG1 antibodies were determined using a real-time surface plasmon resonance biosensor technology with a Biacore T200 instrument. The CM5 Biacore sensor surface was derivatized by amine coupling with a monoclonal mouse anti-His antibody (Cytiva; Marlborough, MA). All Biacore binding studies were performed in a buffer composed of 0.01M HEPES, 0.15M NaCl, 1 mM CaCl₂), 0.5 mM MgCl₂, pH 7.4 (HBS-N++ running buffer). Different concentrations of anti-hCACNG1 antibodies (ranging from 300 nM to 12 nM in 5-fold serial dilutions) prepared in HBS-N++ running buffer were injected over the captured human CACNG1 nanodisc at a flow rate of 30 μL/minute. Antibody association was monitored for 2 minutes while dissociation was monitored in HBS-N++ running buffer for 5 minutes. At the end of each cycle, the human CACNG1 nanodisc capture surface was regenerated using three 10 second injections of 10 mM Gly pH1.5. All binding kinetics experiments were performed at 25° C.
# [5] = target: T3, mouse CACNG1 on myofibers of wildtype mice (mouse, UniProt O70578 1-223); assay: immunofluorescence on live single myofibers ex vivo (wildtype mice), fluorescent secondary antibody, confocal imaging
# T3 construct: whole, on cells; Target inferred from the cells: the wildtype myofibers carry mouse CACNG1, which the CACNG1^Hu/Hu mice have replaced by human CACNG1; also called wildtype (WT) myofibers
# T3 sequence (looked up): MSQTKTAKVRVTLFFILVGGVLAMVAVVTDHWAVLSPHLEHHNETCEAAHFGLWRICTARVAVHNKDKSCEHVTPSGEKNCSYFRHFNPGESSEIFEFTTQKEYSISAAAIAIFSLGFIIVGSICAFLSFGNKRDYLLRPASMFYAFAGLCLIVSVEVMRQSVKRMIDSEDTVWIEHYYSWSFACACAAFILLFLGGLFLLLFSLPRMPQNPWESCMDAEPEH
# Protocol: Single myofibers were isolated from either wildtype mice, mice that were homozygous for the deletion of CACNG1 (referred to as CACNG1 knockout mice), or mice that were homozygous for the expression of human CACNG1 in place of mouse CACNG1 (referred to as CACNG1^{Hu/Hu}). The gastrocnemius muscle was removed, collagenase digested, and single myofibers were isolated, washed, and incubated overnight at 37° C. at 5% C02, in DMEM+10% horse serum. […] Myofibers were then washed twice in DMEM+10% horse serum, and subsequently incubated with 10 ug/mL of fluorescent-conjugated secondary antibodies for 30 minutes, washed twice in DMEM+10% horse serum, and then fixed with 4% paraformaldehyde (PFA) for 15 minutes at room temperature. Single fibers were then washed twice with PBS, stained with Hoechst for 5 minutes, washed once more with PBS, then transferred to microscope slides, coverslipped, and imaged using a Zeiss LSM 710 confocal microscope.
binder,measurement,setting,value
B1,"EC50; androgen receptor luciferase reporter (RLU), hCACNG1.AR.Luc LNCaP cells, 24 hours",[1],19 nM
same,"EC50; androgen receptor luciferase reporter (RLU), hCACNG1.AR.Luc LNCaP cells, 72 hours",[2],7.79 nM
same,"EC50; androgen receptor luciferase reporter (RLU), hCACNG1.AR.Luc LNCaP cells, 48 hours",[3],6.49 nM
B2,mAb Bound at 300 nM (RU),[4],14 RU
same,binding result,[5],no binding (tested: 100 nM)
